Measured values reported in US11278600B2, “Human alpha-galactosidase variants” (Codexis, Inc., priority 2014, dated 2022).
Residue numbers refer to the chain shown, from its start.

B1: 200 (protein)
chain: LDNGLARTPTMGWLHWERFMCNLDCQEEPDSCISEKLFMEMAELMVSEGWKDAGYEYLCIDDCWMAPQRDSEGRLQADPQRFPHGIRQLANYVHSKGLKLGIYADVGNKTCAGFPGSFGYYDIDAQTFADWGVDLLKFDGCYADSLENLADGYKHMSLALNRTGRSIVYSCEWPLYMWPFQKPNYTEIRQYCNHWRNFADIDDSWASIKSILDWTSFNQERIVDVAGPGGWNDPDMLVIGNFGLSWNQQVTQMALWAIMAAPLFMSNDLRHISPQAKALLQDKDVIAINQDPLGKQGYQLRQGDNFEVWERPLSGLAWAVAMINRQEIGGPRSYTIAVASLGKGVACNPACFITQLLPVKRKLGFYEWTSRLRSHINPTGTVLLQLENTMQMSKDLLL
modifications: Synthetic Polypeptide sequence of Variant No. 200 of mature Human GLA
B2: 199 (protein)
chain: B1 chain with A143C, A350G, T369S
modifications: Synthetic Polypeptide sequence of Variant No. 199 of mature Human GLA
B3: 203 (protein)
chain: B1 chain with A143C, E367A, T369D
modifications: Synthetic Polypeptide sequence of Variant No. 203 of mature Human GLA
B4: 195 (protein)
chain: B1 chain with A143C, A206S
modifications: Synthetic Polypeptide sequence of Variant No. 195 of mature Human GLA
B5: 201 (protein)
chain: B1 chain with A143T
modifications: Synthetic Polypeptide sequence of Variant No. 201 of mature Human GLA
B6: 197 (protein)
chain: B1 chain with A143C, A350G, K362Q, T369A
modifications: Synthetic Polypeptide sequence of Variant No. 197 of mature Human GLA
B7: 198 (protein)
chain: B1 chain with A143C, A350G, T369D
modifications: Synthetic Polypeptide sequence of Variant No. 198 of mature Human GLA
B8: 196 (protein)
chain: B1 chain with A143C, A350G
modifications: Synthetic Polypeptide sequence of Variant No. 196 of mature Human GLA
B9: 204 (protein)
chain: B1 chain with A143C, E367D
modifications: Synthetic Polypeptide sequence of Variant No. 204 of mature Human GLA
B10: 202 (protein)
chain: B1 chain with C59A, A143C
modifications: Synthetic Polypeptide sequence of Variant No. 202 of mature Human GLA
B11: 194 (protein)
chain: B1 chain with A143C, A206R
modifications: Synthetic Polypeptide sequence of Variant No. 194 of mature Human GLA
B12: 120 (protein)
chain: B1 chain with A143C, A206K, L398R
modifications: Synthetic Polypeptide sequence of Variant No. 120 of mature Human GLA
B13: 121 (protein)
chain: B1 chain with L44R, A143C, A206K, L384F
modifications: Synthetic Polypeptide sequence of Variant No. 121 of mature Human GLA
B14: 35 (protein)
chain: B1 chain with A143C, A206K, A339S
modifications: Synthetic Polypeptide sequence of Variant No. 35 of mature Human GLA
B15: 122 (protein)
chain: B1 chain with L44T, A143C, A206K
modifications: Synthetic Polypeptide sequence of Variant No. 122 of mature Human GLA

Assay: HTP-analysis of supernatants pretreated with acid (MUGal hydrolysis)
Assay type: biochemical
Settings: challenge at pH 4.2; activity of the variant/activity of Rd2BB (SEQ ID NO: 10); yeast supernatant
Procedure, shortened: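 Fluorescence of MUGal hydrolysis (Ex. 355 nm, Em. 448 nm) is read after sodium carbonate quench. The enzyme source is INVSc1 yeast culture supernatant, first exposed to pH 3.3-4.3 McIlvaine buffer at 37° C. for 1-3 h, then reacted at pH 4.8 for 30-180 minutes.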

| Molecule | Relative Activity of GLA Variants After Challenge at pH 4.2 |
| --- | --- |
| B1 | + (+ = 0.5 to 1.5 relative activity over Rd2BB (SEQ ID NO: 10)) |
| B2 | ++ (++ = 1.5 to 2.5 relative activity over Rd2BB (SEQ ID NO: 10)) |
| B3 | ++ (++ = 1.5 to 2.5 relative activity over Rd2BB (SEQ ID NO: 10)) |
| B4 | + (+ = 0.5 to 1.5 relative activity over Rd2BB (SEQ ID NO: 10)) |
| B5 | + (+ = 0.5 to 1.5 relative activity over Rd2BB (SEQ ID NO: 10)) |
| B6 | ++ (++ = 1.5 to 2.5 relative activity over Rd2BB (SEQ ID NO: 10)) |
| B7 | ++ (++ = 1.5 to 2.5 relative activity over Rd2BB (SEQ ID NO: 10)) |
| B8 | + (+ = 0.5 to 1.5 relative activity over Rd2BB (SEQ ID NO: 10)) |
| B9 | + (+ = 0.5 to 1.5 relative activity over Rd2BB (SEQ ID NO: 10)) |
| B10 | + (+ = 0.5 to 1.5 relative activity over Rd2BB (SEQ ID NO: 10)) |
| B11 | ++ (++ = 1.5 to 2.5 relative activity over Rd2BB (SEQ ID NO: 10)) |

Same assay, conditions: challenge at pH 4.2; activity of the variant/activity of WT GLA (SEQ ID NO: 5); yeast supernatant

| Molecule | Relative Activity of GLA Variants After Challenge at pH 4.2 |
| --- | --- |
| B12 | ++ (++ = >1.5 to 2.5 relative activity over WT GLA (SEQ ID NO: 5)) |
| B13 | ++ (++ = >1.5 to 2.5 relative activity over WT GLA (SEQ ID NO: 5)) |
| B14 | ++ (++ = >1.5 to 2.5 relative activity over WT GLA (SEQ ID NO: 5)) |
| B15 | ++ (++ = >1.5 to 2.5 relative activity over WT GLA (SEQ ID NO: 5)) |

Assay: HTP-analysis of supernatants pretreated with base (MUGal hydrolysis)
Assay type: biochemical
Settings: challenge at pH 7.1; activity of the variant/activity of WT GLA (SEQ ID NO: 5); yeast supernatant
Procedure, shortened: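 GLA variants were secreted by transformed INVSc1 yeast grown 66-84 h at 30° C. Supernatants were exposed to neutral-to-basic buffers (pH 7.0-9.7) at 37° C for 1-18 h, then assayed with MUGal in acidic citrate/McIlvaine buffer, with fluorescence read after quenching.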

| Molecule | Relative Activity of GLA Variants After Challenge at pH 7.1 |
| --- | --- |
| B12 | ++ (++ = >1.5 to 2.5 relative activity over WT GLA (SEQ ID NO: 5)) |
| B13 | ++ (++ = >1.5 to 2.5 relative activity over WT GLA (SEQ ID NO: 5)) |
| B14 | ++ (++ = >1.5 to 2.5 relative activity over WT GLA (SEQ ID NO: 5)) |
| B15 | ++ (++ = >1.5 to 2.5 relative activity over WT GLA (SEQ ID NO: 5)) |

Same assay, conditions: challenge at pH 7.6; activity of the variant/activity of Rd2BB (SEQ ID NO: 10); yeast supernatant

| Molecule | Relative Activity of GLA Variants After Challenge at pH 7.6 |
| --- | --- |
| B1 | + (+ = 0.5 to 1.5 relative activity over Rd2BB (SEQ ID NO: 10)) |
| B2 | ++ (++ = 1.5 to 2.5 relative activity over Rd2BB (SEQ ID NO: 10)) |
| B3 | +++ (+++ = >2.5 relative activity over Rd2BB (SEQ ID NO: 10)) |
| B4 | + (+ = 0.5 to 1.5 relative activity over Rd2BB (SEQ ID NO: 10)) |
| B5 | + (+ = 0.5 to 1.5 relative activity over Rd2BB (SEQ ID NO: 10)) |
| B6 | ++ (++ = 1.5 to 2.5 relative activity over Rd2BB (SEQ ID NO: 10)) |
| B7 | +++ (+++ = >2.5 relative activity over Rd2BB (SEQ ID NO: 10)) |
| B8 | + (+ = 0.5 to 1.5 relative activity over Rd2BB (SEQ ID NO: 10)) |
| B9 | + (+ = 0.5 to 1.5 relative activity over Rd2BB (SEQ ID NO: 10)) |
| B10 | + (+ = 0.5 to 1.5 relative activity over Rd2BB (SEQ ID NO: 10)) |
| B11 | ++ (++ = 1.5 to 2.5 relative activity over Rd2BB (SEQ ID NO: 10)) |

Assay: HTP-analysis of yeast culture supernatants, no challenge (MUGal hydrolysis)
Assay type: biochemical
Settings: activity of the variant/activity of Rd2BB (SEQ ID NO: 10), yeast supernatant
Procedure, shortened: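 Activity read as 4-methylumbelliferyl α-D-galactopyranoside hydrolysis: fluorescence (355/448 nm) after sodium carbonate stop, following 30-180 min at 37° C with 2 mM MUGal stock at pH 4.6–4.8. Enzyme source is unchallenged culture supernatant of INVSc1 yeast expressing GLA variants, grown 66-84 h at 30° C.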

| Molecule | Relative Activity of GLA Variants After No Challenge (NC) |
| --- | --- |
| B1 | + (+ = 0.5 to 1.5 relative activity over Rd2BB (SEQ ID NO: 10)) |
| B2 | ++ (++ = 1.5 to 2.5 relative activity over Rd2BB (SEQ ID NO: 10)) |
| B3 | ++ (++ = 1.5 to 2.5 relative activity over Rd2BB (SEQ ID NO: 10)) |
| B4 | + (+ = 0.5 to 1.5 relative activity over Rd2BB (SEQ ID NO: 10)) |
| B5 | + (+ = 0.5 to 1.5 relative activity over Rd2BB (SEQ ID NO: 10)) |
| B6 | ++ (++ = 1.5 to 2.5 relative activity over Rd2BB (SEQ ID NO: 10)) |
| B7 | ++ (++ = 1.5 to 2.5 relative activity over Rd2BB (SEQ ID NO: 10)) |
| B8 | + (+ = 0.5 to 1.5 relative activity over Rd2BB (SEQ ID NO: 10)) |
| B9 | + (+ = 0.5 to 1.5 relative activity over Rd2BB (SEQ ID NO: 10)) |
| B10 | + (+ = 0.5 to 1.5 relative activity over Rd2BB (SEQ ID NO: 10)) |
| B11 | ++ (++ = 1.5 to 2.5 relative activity over Rd2BB (SEQ ID NO: 10)) |

Same assay, conditions: activity of the variant/activity of WT GLA (SEQ ID NO: 5), yeast supernatant

| Molecule | Relative Activity of GLA Variants After No Challenge (NC) |
| --- | --- |
| B12 | ++ (++ = >1.5 to 2.5 relative activity over WT GLA (SEQ ID NO: 5)) |
| B13 | + (+ = 0.5 to 1.5 relative activity over WT GLA (SEQ ID NO: 5)) |
| B14 | ++ (++ = >1.5 to 2.5 relative activity over WT GLA (SEQ ID NO: 5)) |
| B15 | ++ (++ = >1.5 to 2.5 relative activity over WT GLA (SEQ ID NO: 5)) |
